Test results published in patent publication US20250388669A1 (published 2025).

Assays:
CD137 = target: T1, CD137 (human, UniProt Q07011 24-186); assay: CD137 binding by FCM or ELISA
T1 construct: Reporter assays used GS-H2-huCD137 cells expressing human CD137; also called 4-1BB/CD137; huCD137

CD19 = target: T2, CD19 (human, UniProt P15391 20-556); assay: cell-based or functional assay
T2 sequence (looked up): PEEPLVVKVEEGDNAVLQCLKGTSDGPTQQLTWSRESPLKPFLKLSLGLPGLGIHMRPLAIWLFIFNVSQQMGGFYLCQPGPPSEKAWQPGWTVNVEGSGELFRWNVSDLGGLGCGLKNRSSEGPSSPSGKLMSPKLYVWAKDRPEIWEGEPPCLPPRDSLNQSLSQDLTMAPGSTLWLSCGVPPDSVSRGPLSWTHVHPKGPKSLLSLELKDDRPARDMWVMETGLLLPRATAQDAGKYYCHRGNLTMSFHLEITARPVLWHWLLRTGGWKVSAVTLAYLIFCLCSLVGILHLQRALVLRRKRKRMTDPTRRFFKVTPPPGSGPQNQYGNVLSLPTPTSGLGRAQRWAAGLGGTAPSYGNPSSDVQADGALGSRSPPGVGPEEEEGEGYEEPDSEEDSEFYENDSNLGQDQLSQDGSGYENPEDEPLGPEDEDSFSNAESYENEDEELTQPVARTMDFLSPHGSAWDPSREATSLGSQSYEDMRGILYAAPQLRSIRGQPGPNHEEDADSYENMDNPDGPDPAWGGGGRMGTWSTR

B1: Ly1967 (other)
chain 1: QVQLQQSGAELVRPGSSVKISCKASGYAFSSYWMNWVKQRPGQGLEWIGQIWPGDGDTNYNGKFKGKATLTADESSSTAYMQLSSLASEDSAVYFCARRETTTVGRYYYAMDYWGQGTTVTVSSASTKGPSVFPLAPSSKSTSGGTAALGCLVKDYFPEPVTVSWNSGALTSGVHTFPAVLQSSGLYSLSSVVTVPSSSLGTQTYICNVNHKPSNTKVDKKVEPKSCGGGGSGGGGSGGGGSGGGGSEVQLVESGGGLVQPGGSLRLSCAASGFTFSTYAMNWVRQAPGKGLEWVGRIRSKYNNYATYYADSVKGRFTISRDDSKNSLYLQMNSLKTEDTAVYYCVRHGNFGNSYVSWFAYWGQGTLVTVSSGGGGSDKTHTCPPCPAPEAAGPSVFLFPPKPKDTLMISRTPEVTCVVVDVSHEDPEVKFNWYVDGVEVHNAKTKPREEQYNSTYRVVSVLTVLHQDWLNGKEYKCKVSNKALPAPIEKTISKAKGQPREPQVYTLPPSREEMTKNQVSLWCLVKGFYPSDIAVEWESNGQPENNYKTTPPVLDSDGSFFLYSKLTVDKSRWQQGNVFSCSVMHEALHNHYTQKSLSLSPGGGGGSGGGGSGGGGSGGGGSQVQLVQSGAEVKKPGASVKVSCKASGYTFAGFEMHWVRQAPGQGLEWMGAIDPKTGGTDYNQKFKDRVTMTRDTSISTAYMELSRLRSDDTAVYYCARDLGYFDVWGQGTLVTVSS
chain 2: QVQLQQSGAELVRPGSSVKISCKASGYAFSSYWMNWVKQRPGQGLEWIGQIWPGDGDTNYNGKFKGKATLTADESSSTAYMQLSSLASEDSAVYFCARRETTTVGRYYYAMDYWGQGTTVTVSSASTKGPSVFPLAPSSKSTSGGTAALGCLVKDYFPEPVTVSWNSGALTSGVHTFPAVLQSSGLYSLSSVVTVPSSSLGTQTYICNVNHKPSNTKVDKKVEPKSCGGGGSGGGGSGGGGSGGGGSQAVVTQEPSLTVSPGGTVTLTCRSSTGAVTTSNYANWVQQKPGQAPRGLIGGTNKRAPWTPARFSGSLLGGKAALTITGAQAEDEADYYCALWYSNLWVFGGGTKLTVLGGGGSDKTHTCPPCPAPEAAGPSVFLFPPKPKDTLMISRTPEVTCVVVDVSHEDPEVKFNWYVDGVEVHNAKTKPREEQYNSTYRVVSVLTVLHQDWLNGKEYKCKVSNKALPAPIEKTISKAKGQPREPQVYTLPPSREEMTKNQVSLSCAVKGFYPSDIAVEWESNGQPENNYKTTPPVLDSDGSFFLVSKLTVDKSRWQQGNVFSCSVMHEALHNHYTQKSLSLSPGGGGGSGGGGSGGGGSGGGGSDIQMTQSPSSLSASVGDRVTITCRASQDIRSNLNWYQQKPGGAVKLLIYYTSRLHSGVPSRFSGSGSGTDYTLTISSLQPEDFATYFCQQSEKLPRTFGGGTKVEIR
light: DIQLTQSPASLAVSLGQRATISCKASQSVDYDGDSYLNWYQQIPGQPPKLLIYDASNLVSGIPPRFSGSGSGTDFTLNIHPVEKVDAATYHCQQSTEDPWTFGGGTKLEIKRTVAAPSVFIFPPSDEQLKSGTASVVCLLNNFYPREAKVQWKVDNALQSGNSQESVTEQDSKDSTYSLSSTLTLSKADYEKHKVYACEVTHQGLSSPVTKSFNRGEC
binding result (CD137): binds | EC50 of cytotoxicity (LDH release), Raji cells with human PBMCs, 48 hours (CD19): 8.9 pM
